Residue numbers refer to the chain shown, from its start.
B1: M10-F10 (antibody, V domains shown)
VH: EVQLLESGGGLVQPGGSLRLSCAASGFTFSFYNMNWVRQAPGKSLEWVSSISPSGGETNYADSVKGRFTISRDNSKNTLYLQMNSLRAEDTAVYYCARGGGAYRNNWWGGFDIWGLGTMVTVSS
VL: DIQMTQSPSSLSASVGDRVTITCRASQSISVYLNWYQHKPGKAPKLLIYGASNLQFGVPSRFSGSGYGTDFTLTISSLQPEDFATYHCQQTFSLFTFGGGTKVEIK
B2: M12-B05 (antibody, V domains shown)
VH: EVQLLESGGGLVQPGGSLRLSCAASGFTFSWYTMVWVRQAPGKGLEWVSYIYPSGGATFYADSVKGRFTISRDNSKNTLYLQMNSLRAEDTAVYYCAMGSYDYIWGFYSDHWGQGTLVTVSS
VL: QSALTQPPTVSVSPGQTARITCSGNKLGDKYVAWYQQKPGQSPMLVIYQDTKRPSRVSERFSGSNSANTATLSISGTQALDEADYYCQAWDSSIVIFGGGTRLTVL
B3: M29-D09 (antibody, V domains shown)
VH: B2 VH
VL: B2 VL with R56A, V57I, S58P
B4: M6-D09 (antibody, V domains shown)
VH: EVQLLESGGGLVQPGGSLRLSCAASGFTFSFYYMVWVRQAPGKGLEWVSVIYPSGGITVYADSVKGRFTISRDNSKNTLYLQMNSLRAEDTAVYYCARDKWAVMPPYYYYAMDVWGQGTTVTVSS
VL: DIQMTQSPSSLSASVSDRVTITCRASQSIRNYLNWYQQKPSKAPNLLIYAASTLQSGVPARFSGSGSGTDFTLTISSLQPEDFATYYCQQLSGYPHTFGQGTKLEIK
B5: M7-B04 (antibody, V domains shown)
VL: QSALTQPASVSGSPGQSITISCTGTNSDVGNYNLVSWYQQHPGEAPKLLIYEVNKRPSGVSNRFSGSKSGNTASLTISGLQAEDEADYLCCSYAGNRNFYVFGAGTKVTVL
VH: EVQLLESGGGLVQPGGSLRLSCAASGFTFSWYSMVWVRQAPGKGLEWVSSISPSGGLTNYADSVKGRFTISRDNSKNTLYLQMNSLRAEDTAVYYCARHTAARPFYYYYMDVWSKSTTVTVSSASTKGPSVFPLAPSSKS
B6: M146-E12 (antibody, V domains shown)
VH: EVQLLESGGGLVQPGGSLRLSCAASGFTFSRYIMHWVRQAPGKGLEWVSSISPSGGLTSYADSVKGRFTISRDNSKNTLYLQMNSLRAEDTAVYYCAREFENAYHYYYYGMDVWGQGTTVTVSS
VL: DIQMTQSPSSLSASVGDRVTITCRASGDIGNALGWYQQKPGKAPRLLISDASTLQSGVPLRFSGSGSGTEFTLTISSLQPEDFATYYCLQGYNYPRTFGQGTKLEIR
B7: M41-A11 (antibody, V domains shown)
VH: EVQLLESGGGLVQPGGSLRLSCAASGFTFSHYRMSWVRQAPGKGLEWVSSIYPSGGRTVYADSVKGRFTISRDNSKNTLYLQMNSLRAEDTAVYYCAKDKFEWRLLFRGIGNDAFDIWGQGTMVTVSS
VL: QSVLTQPPSVSVSPGQTASITCSGDKLGDKYTSWYQQRPGQSPVLVIYQDIKRPSGIPERFSGSNSGNTATLTISGTQAMDEADYYCQAWDSPNARVFGSGTKVTVL
B8: M145-D11 (antibody, V domains shown)
VH: B7 VH
VL: B7 VL
B9: M110-C12 (antibody, V domains shown)
VH: EVQLLESGGGLVQPGGSLRLSCAASGFTFSYYEMDWVRQAPGKGLEWVSGISSSGGHTAYADSVKGRFTISRDNSKNTLYLQMNSLRAEDTATYYCARERRSSSRARYYYGMDVWGQGTTVTVSS
VL: DIQMTQSPLSLSVTPGEPASISCRSSLSLLHSNGYNYLDWYVQRPGQSPQLLMYLSSTRASGVPDRFSGSGSGTDFTLEISRVEAEDVGVYYCMQPLETPPTFGGGTKVEIK
B10: M161-C11 (antibody, V domains shown)
VH: EVQLLESGGGLVQPGGSLRLSCAASGFTFSDYAMKWVRQAPGKGLEWVSSISSSGGVTQYADSVKGRFTISRDNSKNTLYLQMNSLRAEDTAVYYCAREEDYSSSWYSRRFDYYYGMDVWGQGTTVTVSS
VL: QSALTQPPSVSVSPGQTASITCSGDKLGDKYVSWYQQRPGQSPVLVIYQDTKRPSGIPERFSGSNSGNTATLTISGTQAVDEADYYCQAWDSSTYVFGGGTKVTVL
B11: M8-A09 (antibody, V domains shown)
VH: EVQLLESGGGLVQPGGSLRLSCAASGFTFSTYFMLWVRQAPGKGLEWVSSIYPSGGNTVYADSVKGRFTISRDNSKNTLYLQMNSLRAEDTAVYYCARAASPVRNYYYYGMDVWGQGTTVTVSS
VL: QCELTQPPSESVSPGQTANITCSGDKLGNKYAYWYQQKPGQSPVLVIYQDNNRPSGIPERFSGSNSGNTATLTISGTQAIDEANYYCQAWDSRTVVFGGGTKLTVL
B12: M7-E07 (antibody, V domains shown)
VH: EVQLLESGGGLVQPGGSLRLSCAASGFTFSWYLMIWVRQAPGKGLEWVSYIYPSGGFTYYADSVKGRFTISRDNSKNTLYLQMNSLRAEDMAVYYCARTEGPLSWGYGMDVWGQGTTVTVSS
VL: not shown
B13: M27-E05 (antibody, V domains shown)
VH: B12 VH
VL: not shown
B14: M160-G12 (antibody, V domains shown)
VH: EVQLLESGGGLVQPGGSLRLSCAASGFTFSHYLMTWVRQAPGKGLEWVSYISPSGGHTIYADSVKGRFTISRDNSKNTLYLQMNSLRAEDTAVYYCARVARGIAARSRTSYFDYWGQGTLVTVSS
VL: DIQMTQSPSFLSASVGDRVTITCRASQGISSYLAWYQQKPGKAPKLLIYAASTLQSGVPSRFSGSGSGTEFTLTISSLQPEDFATYYCQQLNSYPLTFGGGTKVEIK
B15: M162-A04 (antibody, V domains shown)
VH: EVQLLESGGGLVQPGGSLRLSCAASGFTFSHYIMMWVRQAPGKGLEWVSGIYSSGGITVYADSVKGRFTISRDNSKNTLYLQMNSLRAEDTAVYYCAYRRTGIPRRDAFDIWGQGTMVTVSS
VL: DIQMTQSPSTLSASVGDRVTITCRASQSISSWLAWYQQKPGKAPNLLIYKASTLESGVPSRFSGSGSGTEFTLTISSLQPDDFATYYCQQYNTYWTFGQGTKVEIK
B16: M152-A12 (antibody, V domains shown)
VH: EVQLLESGGGLVQPGGSLRLSCAASGFTFSPYFMGWVRQAPGKGLEWVSGIGPSGGSTTYADSVKGRFTISRDNSKNTLYLQMNSLRAEDTAVYYCAREGPPYSSGWYRGLRQYHFDYWGQGTLVTVSS
VL: DIQMTQSPSSLSASVGDRVTITCRASQSISSYLSWYQQRPGKAPNLLIYAASSLQSGVPSRFSGSGSGTDFTLTISSLQPEDFATYYCQQSISIPRTFGQGTKVEVK
B17: M142-H08 (antibody, V domains shown)
VH: EVQLLESGGGLVQPGGSLRLSCAASGFTFSAYSMIWVRQAPGKGLEWVSYIRPSGGRTTYADSVKGRFTISRDNSKNTLYLQMNSLRAEDTAVYYCARGGLLLWFRELKSNYFDYWGQGTLVTVSS
VL: DIQMTQSPSSLSAFVGDRVTITCRASQPIDNYLNWYHQKPGKAPKLLIYAASRLQSGVPSRLSGSGFGTDFTLTISSLQPEDFGNYYCQQSYTVPYTFGGGTKVEIR
B18: M38-F02 (antibody, V domains shown)
VH: EVQLLESGGGLVQPGGSLRLSCAASGFTFSYYMMVWVRQAPGKGLEWVSYIYSSGGHTVYADSVKGRFTISRDNSKNTLYLQMNSLRAEDTAVYYCARDLFLYDFWSKGAFDIWGQGTMVTVSS
VL: QSVLTQPPSVSVSPSQTASITCSGEKLGDKYVSWYQQKPGQSPSLVICEDSRRPSGIPERFSGSNSGNTATLTISGAQPMDEADYYCQAWDSSTAIFGPGTKVTVL
B19: M35-G04 (antibody, V domains shown)
VH: EVQLLESGGGLVQPGGSLRLSCAASGFTFSYYHMSWVRQAPGKGLEWVSVISPSGGSTKYADSVKGRFTISRDNSKNTLYLQMNSLRAEDTAVYYCARGGSSDYAWGSYRRPYYFDYWGQGTLVTVSS
VL: DIQMTQSPATLSLSPGERATLSCRASQSVSSYLAWYQQKPGQAPRLLIYDASNRATGIPARFSGSGSGTDFTLTISSLEPEDFAVYYCQQRSNWPRGFTFGPGTKVDIK
B20: M145-D01 (antibody, V domains shown)
VH: B19 VH
VL: B19 VL
B21: M73-D06 (antibody, V domains shown)
VH: EVQLLESGGGLVQPGGSLRLSCAASGFTFSRYEMYWVRQAPGKGLEWVSSISSSGGPTAYADSVKGRFTISRDNSKNTLYLQMNSLRAEDTAMYYCAKGTPKWELLLRSIYIENAFDIWSQGTMVTVSS
VL: QSELTQPPSASETPSQRVTISCSGSSSNIGSNTVSWFQQLPGSAPRLLIYNDHRRPSGVPDRFSGSKSGTSASLVISGLQSQDEADYYCSAWDDSLNGVVFGGGTKLTVL

These binders were tested against T1, human plasma kallikrein (human, UniProt P03952 20-390; P03952 391-638) (assay: apparent Ki (Ki,app), inhibition of human pKal activity).
T1 construct: also called pKal; human pKal
T1 sequence (P03952 20-390, chain 1 of 2): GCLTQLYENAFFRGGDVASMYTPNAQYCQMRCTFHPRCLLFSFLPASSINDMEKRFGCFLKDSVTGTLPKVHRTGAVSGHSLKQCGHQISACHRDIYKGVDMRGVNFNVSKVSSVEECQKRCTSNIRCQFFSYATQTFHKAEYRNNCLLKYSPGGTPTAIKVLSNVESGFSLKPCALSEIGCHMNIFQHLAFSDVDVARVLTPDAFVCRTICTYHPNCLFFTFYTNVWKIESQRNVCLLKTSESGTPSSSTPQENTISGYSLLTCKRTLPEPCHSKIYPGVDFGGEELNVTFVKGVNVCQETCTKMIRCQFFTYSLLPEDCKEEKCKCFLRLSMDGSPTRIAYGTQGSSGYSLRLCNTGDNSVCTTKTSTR
T1 sequence (P03952 391-638, chain 2 of 2): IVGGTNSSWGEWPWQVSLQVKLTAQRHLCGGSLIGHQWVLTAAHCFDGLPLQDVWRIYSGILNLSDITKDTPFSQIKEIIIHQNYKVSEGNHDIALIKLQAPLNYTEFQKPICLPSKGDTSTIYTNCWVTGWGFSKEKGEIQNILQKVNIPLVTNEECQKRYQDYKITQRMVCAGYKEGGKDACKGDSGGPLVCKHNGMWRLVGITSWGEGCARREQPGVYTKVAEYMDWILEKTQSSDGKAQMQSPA

Row | Ki [nM] | Binder
1 | < 100 | B1
2 | 4.9 | B2
3 | 0.7 | B3
4 | 5.9 | B4
5 | 54 | B5

These binders were tested against T1, human plasma kallikrein (assay: ELISA; signal on biotinylated plasma kallikrein divided by signal on streptavidin background).
From the text: Abbreviations used: “T/B” is the ELISA signal obtained using of the “target” (biotinylated plasma kallikrein) divided by the ELISA signal of the “background” (streptavidin); both of which were coated on microtiter plates. “nd” is not determined. The symbol “q” refers to the amber suppressible stop codon (TAG), which is translated as glutamine (Q) in strains of E. coli such as the TG1 cells that were used to express the Fab fragments.

Row | ELISA (T/B) [T/B ratio] | Binder
6 | 40.6 | B6
7 | 39.2 | B1
8 | 28 | B7
9 | 40 | B8
10 | 2.4 | B9
11 | 41.8 | B10
12 | 5.4 | B11
13 | 45.7 | B12
14 | 41.3 | B13
15 | 38.4 | B2
16 | 47.5 | B3
17 | 38.3 | B14
18 | 11.4 | B15
19 | 19 | B16
20 | 29.9 | B17
21 | 39.9 | B4
22 | 33.5 | B18
23 | 4.1 | B5
24 | 11.1 | B19
25 | 6.2 | B20
26 | 4 | B21

Source: patent US20100183625A1 (published 2010)
